According to patent US11702465 (TRIAD NATIONAL SECURITY, dated 2023):

B1: AM IgG B (antibody, V domains shown)
VH: QVQLVESGGGLVKPGGSLRLSCAASGFTFSDYYMSWIRQAPGKGLEWVSYISGSGSIIYYADSVKGRFTISRDNAKNSLYLQMNSLRAEDTAVYYCAKEIRKHDAFDIWGQGTMVTVSS
VL: DIRMTQSPSSLSASVGDRVTITCRASRSISGYLNWYQQKPGKAPKLLIYATSSLQSGVPSRFSGSGSGTDFTLTISSLQPEDFATYYCQQSYSTPSSFGQGTKVDIKR
notes: also called AM^a IgG B
B2: AM IgG H (antibody, V domains shown)
VH: QVQLQQWGAGLLKPSETLSLTCAVYGGSFSGYYWSWIRQPPGKGLEWIGEINRSGNTNYNPSLKSRVTISVDTSKNQFSLQLNSVTPEDTAVYYCARTRGYFDLWGRGTLVTVSS
VL: QPVLTQSPSVSVSPGQTASITCSGDKLGGRYASWYQQKPGQSPVLVIYQDTKRPSGIPERFSGSNSGNTATLTISGTQAMDEADYYCQSWDSSAAVFGTGTKLTVLG
notes: also called AM^a IgG H

Molecular target: T1, Yersinia pestis F1 antigen, cell-expressed (on Y. pestis cells) (Yersinia pestis, UniProt P26948 22-170)
T1 construct: whole, on cells; also called cell-expressed F1 antigen; F1-positive Y. pestis
T1 sequence (P26948 22-170): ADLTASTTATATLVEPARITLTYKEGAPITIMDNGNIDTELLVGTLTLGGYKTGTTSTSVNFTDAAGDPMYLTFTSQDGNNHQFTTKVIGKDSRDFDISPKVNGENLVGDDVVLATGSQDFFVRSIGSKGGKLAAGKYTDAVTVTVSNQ
Assay: affinity for cell-expressed F1 antigen (method not given)

| Binder | Kd [nM] |
| --- | --- |
| B1 | 0.09 |
| B2 | 0.03 |
